The results in this text go back to the supplement of paper PMC10567573.

The nature of the data set: protein stability index of a GFP-peptide fusion (GPS, HEK-293T) (PSI 1-6); higher = more stable. As to conditions: c terminus: a fixed tail appended.

± gives the standard deviation.
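Also: 24-mer peptide tiles fused after GFP, lentivirally expressed, FACS-sorted into six equal bins by GFP/DsRed ratio, decoded by Illumina sequencing, PSI is the read-weighted mean bin number.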

On to YIKTPLFNPEVAKYLKVPQDPLKF [IQUB], for which the protein stability index runs as follows: (treatment: DMSO) 2.42 ± 0.66; (treatment: MLN4924 1 uM, 8 h) 2.57 ± 0.36.
The corresponding values for CPCCFGRDCLVLNQGYLSEAGASL [PI4K2A] are 2.44 ± 0.2 and 2.62 ± 0.49.
With SREKTACAINKVGVSFSTVENELM [FAM98B], the protein stability index is, setting by setting: (treatment: DMSO) 3.35 ± 0.28; (treatment: MLN4924 1 uM, 8 h) 3.63 ± 0.5.
The corresponding values for GYEKRNLARVPKLDLKRQYDRVAQ [CHGB] are 3.37 ± 0.55 and 3.11 ± 0.29.
The corresponding values for IPVFRLARRRKKILFYCHFPDLLL [ALG2] are 2.88 ± 0.57 and 2.44 ± 0.29.
The corresponding values for ALERRRRALQEEERAAAQARRELQ [ZBED3] are 5.18 ± 0.12 and 4.86 ± 0.19.
On to RLDIVKYLVENNANISIANKYDNT [FEM1B], for which the protein stability index is, setting by setting: (treatment: DMSO) 2.5 ± 0.17; (treatment: MLN4924 1 uM, 8 h) 2.64 ± 0.4.
The corresponding values for GDAFGSSASEPQPASQAASSSSAS [SNAP91] are 5.48 ± 0.16 and 5.32 ± 0.31.
On the same counts, the results for QVAMPYQWEYPYLLSILPSLLGLL [JAGN1] are 2.8 ± 0.36 and 2.85 ± 0.64.
On the same counts, the results for SNNKKNDEMQEVPNRVLAPEQSLK [SPANXN3] are 5.27 ± 0.16 and 5.36 ± 0.17.
WHEIRQGRLPRIPQVLSQEFTELL [WEE1]: the protein stability index amounted to 2.42 ± 0.22 (treatment: DMSO) and 2.38 ± 0.23 (treatment: MLN4924 1 uM, 8 h).
The corresponding values for GGAICGGPDHRLRLWRLFQTLDVN [SLC25A25] are 2.33 ± 0.27 and 2.48 ± 0.42.
On to TLDPNGKTCSRVDHCAQQDHGCEQ [MATN2], for which the protein stability index (treatment: DMSO) was 4.03 ± 0.25 and the protein stability index (treatment: MLN4924 1 uM, 8 h) worked out at 4.16 ± 0.22.
The corresponding values for PENGEIKPASKPAGSSHTPSSQSS [ELOA2] are 5.43 ± 0.25 and 5.62 ± 0.067.
The corresponding values for MVGLILGPFGINHGIELHSDVVEY [PCMTD1] are 2.68 ± 0.65 and 2.85 ± 0.52.
The corresponding values for KSKHAPRGTHLWEFIRDILIHPEL [ELF3] are 2.6 ± 0.75 and 2.26 ± 0.36.
Consider LSQPQQGEAMLANFKPRGYSECIV [GAN], for which the protein stability index reads like this: (treatment: DMSO) 3.13 ± 0.21; (treatment: MLN4924 1 uM, 8 h) 3.02 ± 0.37.
The corresponding values for QDLLDVIRIKLDPCHPTVKNWRNF [EDARADD] are 2.27 ± 0.75 and 2.35 ± 0.34.
The corresponding values for PRELASMSLVLHGNNLLVFGGTGI [KLHDC10] are 2.46 ± 0.71 and 2.45 ± 0.59.
On the same counts, the results for YQSFVQFLQYYYQSGCLYRLRALG [TMEM120A] are 2.67 ± 0.88 and 3.22 ± 0.57.
DRLASNVAKRKSSMPQKFLGDKGL [IKZF1]: the protein stability index is, setting by setting: (treatment: DMSO) 3.95 ± 0.11; (treatment: MLN4924 1 uM, 8 h) 4.05 ± 0.17.
The corresponding values for LEKEREKEISDDEAEEEKGEKEEE [HSP90AB1] are 5.66 ± 0.34 and 5.74 ± 0.21.
On the same counts, the results for ERGPYRTRKHAHHCHKRRTRSCSS [CLK3] are 4.42 ± 0.24 and 4.51 ± 0.15.
The corresponding values for HIKLHSGEKPFKCHLCNYACRRRD [IKZF1] are 2.55 ± 0.23 and 2.93 ± 0.61.
GCRLPSISSTTCGRQLEKVPEKRD [SPATS1]: the protein stability index came to 3.98 ± 0.36 (treatment: DMSO) and 3.84 ± 0.22 (treatment: MLN4924 1 uM, 8 h).
On the same counts, the results for WAIPNRQINDGMGGDGDDMEIFME [BEX3] are 4.31 ± 0.3 and 4.22 ± 0.26.
On the same counts, the results for RKDTKEIYTHFTCATDTKNVQFVF [GNAI1] are 2.49 ± 1 and 2.64 ± 0.43.
Turning to RADFVLAANSYDLAIKAITSSAKV [FKBP8], the protein stability index runs as follows: (treatment: DMSO) 2.72 ± 0.18; (treatment: MLN4924 1 uM, 8 h) 2.84 ± 0.3.
In the case of LRRESTSQKEMDKAETKTKKAAES [FCHO1], the protein stability index is, setting by setting: (treatment: DMSO) 5.45 ± 0.28; (treatment: MLN4924 1 uM, 8 h) 5.46 ± 0.13.
For LMVHGNERFIQYLASRNTLFNLSN [SNAP91], the protein stability index is, setting by setting: (treatment: DMSO) 2.67 ± 0.54; (treatment: MLN4924 1 uM, 8 h) 2.3 ± 0.7.
On the same counts, the results for AALNAHSDCCRKLLSSGFEIDTPD [ANKRD44] are 3.61 ± 0.24 and 3.59 ± 0.42.
On the same counts, the results for PQEAVLQQLHQLPRGRLDLATQSL [LRRC45] are 3.75 ± 0.15 and 3.74 ± 0.21.
Sequence KQPDLTMVRKIGCYAAMKKKIYAM [GAN] had a protein stability index (treatment: DMSO) of 2.28 ± 0.45 and a protein stability index (treatment: MLN4924 1 uM, 8 h) of 2.21 ± 0.14.
Consider GLWSRISHLVLPVQPVSSIEEQGC [TOR1AIP2], for which the protein stability index came to 2.44 ± 0.26 (treatment: DMSO) and 2.64 ± 0.38 (treatment: MLN4924 1 uM, 8 h).
The corresponding values for MTLAANHELMLRFKDEYKSENIKL [CCDC89] are 3.44 ± 0.17 and 3.72 ± 0.25.
The corresponding values for QRGRVISLWERLEFVNGWYILLVT [MCOLN1] are 2.79 ± 0.68 and 2.67 ± 0.65.
The corresponding values for ESTFMYLTLDLPTAPLYKDEKEQL [USP39] are 3.4 ± 0.2 and 3.55 ± 0.15.
SQLDSGVSQAVEGPEELSRSSSES [RIPK4]: the protein stability index reads like this: (treatment: DMSO) 5.5 ± 0.087; (treatment: MLN4924 1 uM, 8 h) 5.54 ± 0.26.
On the same counts, the results for LGWGPTALRDVPFSALYWFNYELV [SLC25A39] are 2.9 ± 0.54 and 2.61 ± 0.41.
The corresponding values for TKSHIMLVQRQMSVIEEDLEEFQL [NECAB1] are 3.22 ± 0.21 and 3.12 ± 0.21.
On the same counts, the results for LEASNYQMMPYMQPVMQSDRTAIR [KLHL13] are 3.9 ± 0.38 and 4.17 ± 0.25.
Turning to GYRCFVCPVEYNNDTNSFTVDCEP [CDS2], the protein stability index was 2.35 ± 0.47 (treatment: DMSO) and 2.58 ± 0.51 (treatment: MLN4924 1 uM, 8 h).
On the same counts, the results for ETILNAFKMLDPDGKGKINKEYIK [MYL5] are 2.96 ± 0.31 and 3.17 ± 0.41.
On the same counts, the results for SSSFSNLDLSEEDSDDPSVTLELS [VDR] are 5.35 ± 0.23 and 5.16 ± 0.28.
The corresponding values for QLQAARNEYLLNLVATNAHLDHYY [FCHSD1] are 2.58 ± 0.44 and 2.55 ± 0.73.
Take MAAESGELIGACEFMKDRLYFATL [CDC14A]: the protein stability index runs as follows: (treatment: DMSO) 2.53 ± 1.1; (treatment: MLN4924 1 uM, 8 h) 1.82 ± 0.46.
As for NCRLSEGDVMHLSQSPSVSQLSVL [PRAME], the protein stability index stood at 2.29 ± 0.63 (treatment: DMSO) and 2.37 ± 0.065 (treatment: MLN4924 1 uM, 8 h).
On the same counts, the results for QIPTQNTQARQVMEREFNNLLALG [PPFIA4] are 3.56 ± 0.12 and 3.37 ± 0.21.
The corresponding values for QLNRRGEFIQEIRRQLEACQRERA [OAS1] are 4.09 ± 0.19 and 3.79 ± 0.075.
For the sequence ACIVVLDRTSHRLHTANLGDSGFL [PPTC7], the protein stability index reads like this: (treatment: DMSO) 2.68 ± 0.48; (treatment: MLN4924 1 uM, 8 h) 2.24 ± 0.43.
The corresponding values for PLKAQNDLDISRIKRGNTTLESTD [P2RY14] are 5 ± 0.11 and 5.24 ± 0.24.
On the same counts, the results for TLGREVMSPLQAMSSYTVAGRNVL [NLN] are 3.1 ± 0.2 and 3.01 ± 0.34.
The corresponding values for LATFSSDWEIQEDSRLMCSSVQKA [CCDC3] are 4 ± 0.44 and 3.9 ± 0.29.
Consider LQDLALQGAKERAHQQKKHSGFED [CHGA], for which the protein stability index is, setting by setting: (treatment: DMSO) 4.92 ± 0.29; (treatment: MLN4924 1 uM, 8 h) 5.06 ± 0.22.
The corresponding values for FASDGDSGTCSPLRHSFQKQQREK [ADD1] are 3.98 ± 0.41 and 4.17 ± 0.39.
The corresponding values for SLKLIKRLYVDKSLNLSTEFISST [SERPINB5] are 2.38 ± 0.26 and 2.11 ± 0.15.
On the same counts, the results for WKVLTWLRYTLWIPLYPLGCLAEA [HACD3] are 2.78 ± 0.74 and 2.55 ± 0.54.
The sequence HDCAESGSLDIMKMLLMYCAKMEK [FEM1C] gave a protein stability index (treatment: DMSO) of 2.16 ± 0.3 and a protein stability index (treatment: MLN4924 1 uM, 8 h) of 2.13 ± 0.22.
On the same counts, the results for MPSPCSCMSFNPETRRLSIGLDNG [WDFY2] are 3.19 ± 0.13 and 3.29 ± 0.25.
The corresponding values for PTPANEERRGGLPPLPLHPGGDQG [WAS] are 5.38 ± 0.22 and 5.39 ± 0.065.
The corresponding values for YLLMVTVILLPYVSKVTGWCRDRL [TMEM175] are 3.27 ± 0.62 and 3.22 ± 0.66.
With KAAVSHWQQQSYLDSGIHSGATTT [CTNNB1], the protein stability index is, setting by setting: (treatment: DMSO) 3.69 ± 0.2; (treatment: MLN4924 1 uM, 8 h) 3.78 ± 0.17.
On the same counts, the results for DSAVENLLLLSKAKLVPSEREASP [IKZF1] are 4.15 ± 0.23 and 4.59 ± 0.14.
AKLAADDFRTKYETELSLRQLVEA [KRT36]: the protein stability index is, setting by setting: (treatment: DMSO) 3.73 ± 0.33; (treatment: MLN4924 1 uM, 8 h) 3.78 ± 0.061.
As to VEVMDETNCQKVLNMWCCCFFKRR [CSNK1G3], the protein stability index runs as follows: (treatment: DMSO) 3.21 ± 0.38; (treatment: MLN4924 1 uM, 8 h) 3.15 ± 0.39.
On the same counts, the results for TNVESQLAEIRSDLERQNQEYQVL [KRT33B] are 4.52 ± 0.26 and 4.56 ± 0.25.
On the same counts, the results for EDRKLPAPGADVKVHRARKTMPKS [EHMT1] are 5.28 ± 0.31 and 5.19 ± 0.18.
On the same counts, the results for RLNLTNTKQNFFSQTPILQALQHV [INTS3] are 2.23 ± 0.092 and 2.5 ± 0.17.
For ASLGLTQTQVKIWFQNKRSKFKKL [DLX1], the protein stability index was determined as 2.37 ± 0.19 (treatment: DMSO) and 2.61 ± 0.47 (treatment: MLN4924 1 uM, 8 h).
On the same counts, the results for DNDHKEAVGKMGFVVTMLKLIQKK [ZER1] are 2.21 ± 0.37 and 2.07 ± 0.34.
The corresponding values for RDSHGKGIPNAIISVEGINHDIRT [CPXM2] are 4.2 ± 0.21 and 4.17 ± 0.27.
On the same counts, the results for SNDFKSVLEVRTENLKQQRSRREQ [STX5] are 4.9 ± 0.21 and 4.92 ± 0.31.
